Target: NC4-antiserum (rabbit polyclonal antiserum against the collagen alpha1 (IX) NC4-peptide coupled to KLH)
Test: inhibition ELISA: free NC4-peptide against binding of NC4-antiserum to solid-phase NC4-peptide

peptide concentration showing efficient inhibition of the binding: 0.3 ng/mL
Binder: H-CGQDDLPGFDLISQFQ-NH2 [NC4-peptide NH2-…^64-CONH2]

From US20080220459A1
